Consider one molecule from publication PMC6753193 (2019).

Where no end group is shown, it is not given here. [ ]: non-standard residue; d: D form. pS = N[C@@H](COP(=O)(O)O)C(=O)O

The experiment addresses recombinant human PP1α (residues 7–300) (human, UniProt P62136 7-300). As to the kind of experiment: SPR.

As a reminder, the koff is the rate constant with which the complex falls apart.

recombinant human PP1α (residues 7–300), sequence (P62136 7-300): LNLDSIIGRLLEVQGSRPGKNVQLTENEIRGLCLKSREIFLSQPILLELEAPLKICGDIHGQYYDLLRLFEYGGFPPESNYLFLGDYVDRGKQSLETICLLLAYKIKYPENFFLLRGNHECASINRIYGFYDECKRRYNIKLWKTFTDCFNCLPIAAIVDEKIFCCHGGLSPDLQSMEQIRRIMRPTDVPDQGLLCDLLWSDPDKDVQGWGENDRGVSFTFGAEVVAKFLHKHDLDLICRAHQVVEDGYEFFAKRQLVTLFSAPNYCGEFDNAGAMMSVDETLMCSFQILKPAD

For HIPR[pS]PYKFPSSPLRKKCCFHCQVCFITK (cysteine pairing not given here) [pRb-Tat hybrid peptide], the off-rate constant (koff) was 0.00394 s⁻¹.
